In US20120100207A1, “PROCESS FOR PRODUCING LIPOSOMES BY TWO-STEP EMULSIFICATION METHOD UTILIZING OUTER AQUEOUS PHASE CONTAINING SPECIFIC DISPERSING AGENT, PROCESS FOR PRODUCING LIPOSOME DISPERSION OR DRY POWDER THEREOF USING THE PROCESS FOR PRODUCING LIPOSOMES, AND LIPOSOME DISPERSION OR DRY POWDER THEREOF PRODUCED …” (KONICA MINOLTA HOLDINGS, INC., priority 2009, published 2012):

Legend:
[1] = in an aqueous solvent; background statement; cited from earlier work
[2] = Volume mean particle diameter by dynamic light scattering particle size analyzer; type: physicochemical
Description: The volume mean particle diameter of liposomes in the examplesandthecomparativeexamplesdescribedbelowwasmeasured by the following method.
The W1/O emulsion was diluted with a chloroform/hexane mixed solvent (volume ratio: 4/6, the specific gravity was made equal to that of the inner aqueous phase) to 10 times, then a particle size distribution was measured with a dynamic light scattering nanotrack particle size analyzer (UPA-EX150, manufactured by Nikkiso Co., Ltd.), and based on this particle size distribution, a volume mean particle diameter was calculated.
As for the volume mean particle diameter of the specific dispersing agent which forms molecular aggregates, a liposome dispersion (also referred to as a “suspension” hereinafter) prepared in each of the following examples was subjected to the measurement as it was, using the same device. That is to say, a suspension of liposome particles prepared was diluted with a phosphoric acid buffer saline solution (PBS) to 25 times, then a particle size distribution was measured using a dynamic light scattering nanotrack particle size analyzer (UPA-EX150, manufactured by Nikkiso Co., Ltd.), and based on this particle size distribution, a volume mean particle diameter was calculated.

Substance: sodium caseinate
- volume mean particle diameter of molecular aggregates (submicelles) [1]: about 15 nm
- volume mean particle diameter of particles of associated molecular aggregates [1]: 100 to 200 nm
- particle size distribution of associated substance of molecular aggregates ([2]; solution containing only casein having a higher concentration): 150 nm
- main particle size distribution (volume mean particle diameter) ([2]; solution containing only the dispersing agent): 15 nm
